In the supplement of paper PMC9170038:

Tested on: MS2 coat protein
Assay: apparent KD of MS2 coat protein; designed switch direction (-1 OFF switch, 1 ON switch): -1; higher = weaker reporter binding
Summary of the method: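 Three titration conditions were used: no input, 200 uM small-molecule ligand, and an oligonucleotide input. In each, SNAP-549-labelled MS2 coat protein was raised from 0.7 or 1.5 nM, doubling, to 3 µM over designed RNA switches transcribed on Illumina chips by stalled E. coli RNA polymerase. Curve fits of normalised cluster fluorescence gave values whose per-design median over clusters is the apparent KD.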

[1] = Eterna round: R95, input ligand: FMN 200 uM
[2] = Eterna round: R95, input ligand: microRNA oligo, concentration not stated
[3] = Eterna round: R95, input ligand: none
[4] = input ligand: microRNA oligo, concentration not stated

| Sequence | apparent KD of MS2 coat protein (input ligand: FMN 200 uM) [nM] | apparent KD of MS2 coat protein (input ligand: none) [nM] | apparent KD of MS2 coat protein [1] [nM] | apparent KD of MS2 coat protein [2] [nM] | apparent KD of MS2 coat protein [3] [nM] | apparent KD of MS2 coat protein [4] [nM] |
| --- | --- | --- | --- | --- | --- | --- |
| GCAGUAUGAGUUAGGAUAUGAUGAUUUGAAAUGGGUCAGAAGGAACUUGAGGAUCACCCAAGUAAUGAAUUGGU [JR_BMEx4_Sub073] (Eterna round: R97, puzzle: Brourd's mod of Exclusion 4) | 94.6 | 52.7 |  |  |  |  |
| AAAUACAAGCAGAGAUCCUACAUGAGGAUCACCCAUGUGCUCGUCUUAUAAAGUACUAUCACGAAAGUGAUAGUACA [Sensor 3, v1 - 17] (puzzle: Sensor v3, turn-off variant 1) |  |  | 184 | 41.8 | 218 |  |
| GUCAUCACACAUGGGAUCAACAUGAGGAUCACCCAUGUUGCCAAGUUGUUUGCACGUCUUAUCAUACGUUUUUCGAU [Mod-Jxi] (Eterna round: R97, puzzle: Sensor, turn-off variant 1) | 22.2 | 22.7 |  |  |  |  |
| CUACCCUGAGGAUAUCCACCGUGAUACAUGAGGAUCACCCAUGUUAAUGCCUGAGUUCCCGGAGAAGGCAGAUUCC [Megrez2] (Eterna round: R97, puzzle: Exclusion 5) | 27.2 | 30.5 |  |  |  |  |
| GAUCUGACAGGAUAUACAUGAGGAUCACCCAUGUGCGUGCUAGCGAAAGCUAGCGCAGGUAGAAGGGUCAGAUC [Ex3 dot plot directed v4] (puzzle: Exclusion 3) |  |  | 14.4 | 11.3 | 12.9 |  |
| AAUGAUUGACGAGGAUAUUGUGGUAGAUCACGACGAGAAGGCGUUUGUCACAUGAGGAUCACCCAUGUGAGCCUUGUGGAUAGA [Ex NG1 #75] (Eterna round: R96, puzzle: Exclusion NG 1) | 160 | 30.9 |  |  |  | 20.1 |
| GGAUAAAAGACAGGAUAUGAGGAGAGAGAGAGAUCAGAAGGGUCACAUGAGGAUCACCCAUGUGAGUUCUCGAUAAGAAACACG [Prohibition 54 - Jieux - Exclusion NG 1] (Eterna round: R96, puzzle: Exclusion NG 1) | 15.5 | 18.4 |  |  |  | 12.7 |
| ACCUCACAUGAGGAUCACCCAUGUCAGGAUAUGUACCUAGCCAAAACAAAGGCCAGAAGCAGAAGGGACUGCGG [Ralerezara] (puzzle: Exclusion 1) |  |  | 24.1 | 53.4 | 44.6 |  |
| UGUUGUUACGCAGGAUAUUGCCAACAGGCAGUAGGAUAUCCGAAAGGAGAAGGACCGCCAACAGGCGAGAAGGGCGGGUUAACA [pwkr exNG2 2xF7 2xFMN.10] (Eterna round: R96, puzzle: Exclusion NG 2) | 370 | 16.3 |  |  |  | 227 |
| CACCGUAACAGAGGAUAUGAAACAUGAGGAUCACCCAUGUAAUAAAUGAGAAUUUCGAAUGUACCUCAGAAGGCUGAAACCGGC [Ostricism 82 - Jieux - Exclusion NG 2] (Eterna round: R96, puzzle: Exclusion NG 2) | 56.8 | 43 |  |  |  | 31.9 |
| CCAGGCAGUGUGAGGAUAUCGUGGUCCUUGGAUCACGAGAAGGCACAUGAGGAUCACCCAUGUGAAUAGCUUGG [Mat - Exclusion 4 - JL Mod - D100] (puzzle: Brourd's mod of Exclusion 4) |  |  |  | 21.9 |  |  |
| UAUCGGCGGACCCAGGCUUUUUGCUCGUCUUAUGCUAUGACAUGAGGAUCACCCAUGUGGUGGUGGUCCGUUGUAGU [JL ViennaUCT Bitein mod 11] (puzzle: Sensor v3, turn-off variant 2) |  |  | 21.1 | 11.3 | 19.5 |  |
| UUUAUGUAAGGAUAUAUGAGUCACGGAAAUAAACCGUGAAGAUAGAAGGUACAUGAGGAUCACCCAUGUAAGGC [Mod of Anonveat 8 - Jieux - Exclusion 4] (Eterna round: R97, puzzle: Exclusion 4) | 40.1 | 22.9 |  |  |  |  |
| UGCAGACGAGGAUAUAAAUGAUAUAACAUGAGGAUCACCCAUGUACGAUCGAAUGAUCGUUUAGAAGGCGUCUGCU [E5/11-A3] (Eterna round: R97, puzzle: Exclusion 5) | 14.1 | 15.5 |  |  |  |  |
| UUUUGACAAGCGAGAUCCUACAUGAGGAUCACCCAUGUAGACCAUGGUUUCCAUGGUCUUUUUGCUCGUCUUGUGUG [jl TITIN mod 5] (Eterna round: R97, puzzle: Sensor, turn-off variant 1) | 23.2 | 23.4 |  |  |  |  |
| AUUUUAAUAUAGGAUAUCGAAAUUAUUAUUUAACGAGAAGGAUGAACAUGAGGAUCACCCAUGUGGUAUCAUGG [Mat - Exclusion 6 - JL Mod - D31] (puzzle: Exclusion 6) |  |  |  | 192 |  |  |
| GGUCCACAUGAGGAUCACCCAUGUUAGGAUAUCUCCUGCCUCCUCACUGGAGGCAGACAGAGAAGGAACAUCAA [Eratxe] (puzzle: Exclusion 1) |  |  | 78.3 | 22 | 23.9 |  |

| Sequence | apparent KD of MS2 coat protein (input ligand: FMN 200 uM) [nM] | apparent KD of MS2 coat protein (input ligand: none) [nM] | apparent KD of MS2 coat protein [1] [nM] | apparent KD of MS2 coat protein [2] [nM] | apparent KD of MS2 coat protein [3] [nM] | apparent KD of MS2 coat protein [4] [nM] |
| --- | --- | --- | --- | --- | --- | --- |
| GUCUUGAUAGGAUAUACAUGAGGAUCACCCAUGUCCCACCCGUUACCUCUGACCCUAUGUAGAAGGAUCGUUUG [Exy#17] (Eterna round: R97, puzzle: Exclusion 3) | 34.3 | 48.3 |  |  |  |  |
| AGCUUUUUGCUCGUCUUAUACAUGAGGAUCACCCAUGUAUUGGACCACAUCGAUAGAUGUGGACCAAGAAGCGUGGU [Omdei Mir OFFv1 C4] (Eterna round: R97, puzzle: Sensor, turn-off variant 1) | 38.6 | 39.7 |  |  |  |  |
| CGUCUGUAAGGAUAUGGUUGCAUCGACAUGAGGAUCACCCAUGUAACGUGGGACUAGUGAUUAGAAGGUACGAACG [EX5 #61] (Eterna round: R97, puzzle: Exclusion 5) | 110 | 133 |  |  |  |  |
| GGUACUCAAAGAGUACCAAUACGAACAUGAGGAUCACCCAUGUAGGAUAUGCUACUCAAAGAGUAGCAGAAGGACAUGAACCCU [Far Half Aptamer v7] (Eterna round: R96, puzzle: Exclusion NG 3) | 571 | 61.8 |  |  |  | 38.3 |
| UUAUAAAGUGUGAGGAUAUGCUGGUCCAUAGAUCAGCAGAAGGCACAUGAGGAUCACCCAUGUAAUAUAUUUUU [Mat - Exclusion 4 - JL Mod - D43] (puzzle: Brourd's mod of Exclusion 4) |  |  |  | 27.2 |  |  |
| AGACGUCAAGUCAGGAUAUAGAGGCAAGUCCACCGCUAGAAGGGACAUGAGGAUCACCCAUGUAGGGUUUAGCU [Zainsoed] (puzzle: Brourd's mod of Exclusion 4) |  |  | 101 | 157 | 135 |  |
| UUUAUGUCAGGAUAUACAUGAGGAUCACCCAUGUAUAUCUUAAAGUAUACAUGGGAAUGUAGAAGGGACCUCCU [Omei Ex3 Pseudoloop 5] (Eterna round: R97, puzzle: Exclusion 3) | 43.8 | 35 |  |  |  |  |
| GGGUGACAGUUAGGAUAUCUUAGCACGCCGUAGAGAGAAGGAACAUGAGGAUCACCCAUGUUGUAGUGCCUCCGGCACUGCUAG [Zaquata] (Eterna round: R96, puzzle: Exclusion NG 1) | 59.2 | 43.5 |  |  |  | 30.1 |
| GUGAGAUAGUUAGUGGACGACAUGAGGAUCACCCAUGUGAGGGAAAUGUUGAGGAGAAAGCUUUUUGCUCGUCUUUA [JR_SV3TOV1_Sub036] (puzzle: Sensor v3, turn-off variant 1) |  |  | 90.8 | 87.4 | 119 |  |
| AAGAAGAAACAAGCUUUUUGCACGUCAUAUAGUGACGCAACAUGAGGAUCACCCAUGUAUAGGGUGGGAAAGGAUAG [JR_SV3TOV2_Sub047] (puzzle: Sensor v3, turn-off variant 2) |  |  | 338 | 70 | 423 |  |
| UUUAAAACAUAGGAUAUCGAAAAUAUCAUUUAACGAGAAGGAUGAACAUGAGGAUCACCCAUGUGGUAUCAUGG [Mat - Exclusion 6 - JL Mod - D16] (puzzle: Exclusion 6) |  |  | 320 | 580 | 313 |  |
| AUGAACAAGCUUUUUGCAAACAUGAGGAUCACCCAUGUCUUAUAUCGUACCAUGCUAGGCCCUAGCAUGGUACGAUU [jl sellena mod 2] (Eterna round: R97, puzzle: Sensor, turn-off variant 1) | 17.6 | 14.6 |  |  |  |  |
| CGUGACUCAGGAUAUUCAUAAUAUCACAUGAGGAUCACCCAUGUCCAGCGAAAGCUGGAGGGAGAAGGGAGUCACG [Fiskers Ex 5 - 37] (puzzle: Exclusion 5) |  |  | 56.7 | 151 | 99.6 |  |
| UGAAAGUGAGGAUAUCCAAUAUAUGACAUGAGGAUCACCCAUGUUUCCACUCGUACCUCCGGAGAAGGCACAAAGU [Ex5 #58] (Eterna round: R97, puzzle: Exclusion 5) | 26.2 | 28.8 |  |  |  |  |
| GCGGGUUUUUUGUUCGUUUACAUGAGGAUCACCCAUGUGUCUUCGCGUUCGGGUUCGGGCGGGCUUGGGCUUGGGCG [-26.2, -50.6, A 8%] (Eterna round: R97, puzzle: Sensor, turn-off variant 1) | 47.4 | 47.8 |  |  |  |  |
| UUUUUUUAUGAAGGAUAUACUUAACAUGAGGAUCACCCAUGUGGUGUUGUGAGUGAGUGAGUUUAGUAGAAGGUCAAUUAUUUU [JMF's solution 23] (Eterna round: R96, puzzle: Exclusion NG 2) | 412 | 334 |  |  |  | 379 |
